# Data as given in publication PMC9944328 (Nature Communications, 2023).
# Key:
# [1] = target: human full-length SSTR2 wild-type (human) (UniProt P30874)
# [2] = target: human full-length SSTR3 H192^45.51T (human) (UniProt P32745)
# [3] = target: human full-length SSTR3 wild-type (human) (UniProt P32745)
# [4] = target: human full-length SSTR3 N101^2.64V (human) (UniProt P32745)
# [5] = target: human full-length SSTR2 T194^45.51H (human) (UniProt P30874)
# [6] = target: human full-length SSTR2 V103^2.64N (human) (UniProt P30874)
# human full-length SSTR2 V103^2.64N (human), sequence (P30874 whole entry V103N): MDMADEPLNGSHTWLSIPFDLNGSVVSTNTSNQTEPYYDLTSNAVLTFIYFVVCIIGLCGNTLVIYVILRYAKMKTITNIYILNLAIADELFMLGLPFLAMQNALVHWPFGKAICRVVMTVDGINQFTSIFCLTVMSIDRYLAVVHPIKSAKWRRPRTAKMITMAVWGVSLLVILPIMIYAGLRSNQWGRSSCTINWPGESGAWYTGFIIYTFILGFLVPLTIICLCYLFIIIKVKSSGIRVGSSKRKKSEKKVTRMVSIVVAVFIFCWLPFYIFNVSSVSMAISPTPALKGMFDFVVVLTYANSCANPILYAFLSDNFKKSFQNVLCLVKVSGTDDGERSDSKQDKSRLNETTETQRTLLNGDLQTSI
# [7] = target: human full-length SSTR2 wild-type with SmBiT at the C-terminus (human) (UniProt P30874)
# human full-length SSTR2 wild-type with SmBiT at the C-terminus (human), sequence (P30874 whole entry): as the sequence (P30874 whole entry V103N) above, with N103V counted along it
# SSTR2 V103^2.64N (human) = SSTR2 V103^2.64N (human) (UniProt P30874)
# SSTR2 V103^2.64N (human), sequence (P30874 whole entry V103N): as the sequence (P30874 whole entry V103N) above
# SSTR3 N101^2.64V (human) = SSTR3 N101^2.64V (human) (UniProt P32745)
# SSTR3 N101^2.64V (human), sequence (P32745 whole entry): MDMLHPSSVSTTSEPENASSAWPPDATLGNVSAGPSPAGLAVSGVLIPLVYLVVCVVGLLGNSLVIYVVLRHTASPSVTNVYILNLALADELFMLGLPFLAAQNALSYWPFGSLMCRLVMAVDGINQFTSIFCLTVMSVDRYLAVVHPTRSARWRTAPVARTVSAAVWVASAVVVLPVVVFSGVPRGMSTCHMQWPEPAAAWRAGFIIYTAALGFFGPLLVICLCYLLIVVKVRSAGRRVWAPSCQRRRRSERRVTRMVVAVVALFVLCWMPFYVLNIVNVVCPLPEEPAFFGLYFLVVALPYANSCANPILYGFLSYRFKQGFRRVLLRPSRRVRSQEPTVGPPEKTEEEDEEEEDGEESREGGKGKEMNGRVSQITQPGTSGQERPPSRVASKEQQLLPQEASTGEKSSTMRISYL
# [8] = target: SSTR3 H192^45.51T (human) (UniProt P32745)
# SSTR3 H192^45.51T (human), sequence (P32745 whole entry H192T): as the sequence (P32745 whole entry) above, with H192T counted along it
# [9] = target: SSTR2 T194^45.51H (human) (UniProt P30874)
# SSTR2 T194^45.51H (human), sequence (P30874 whole entry T194H): as the sequence (P30874 whole entry V103N) above, with N103V, T194H counted along it
# [10] = target: human full-length SSTR3 wild-type (human) (UniProt P32745); remark: listed apart in the source
# [11] = target: human full-length SSTR2 wild-type with SmBiT at the C-terminus (human) (UniProt P30874); remark: listed apart in the source
# SSTR2 T287^ECL3A (human) = SSTR2 T287^ECL3A (human) (UniProt P30874)
# SSTR2 T287^ECL3A (human), sequence (P30874 whole entry T287A): as the sequence (P30874 whole entry V103N) above, with N103V, T287A counted along it
# SSTR2 F127^3.37A (human) = SSTR2 F127^3.37A (human) (UniProt P30874)
# SSTR2 F127^3.37A (human), sequence (P30874 whole entry F127A): as the sequence (P30874 whole entry V103N) above, with N103V, F127A counted along it
# SSTR2 N276^6.55A (human) = SSTR2 N276^6.55A (human) (UniProt P30874)
# SSTR2 N276^6.55A (human), sequence (P30874 whole entry N276A): as the sequence (P30874 whole entry V103N) above, with N103V, N276A counted along it
# SSTR2 Y205^5.35A (human) = SSTR2 Y205^5.35A (human) (UniProt P30874)
# SSTR2 Y205^5.35A (human), sequence (P30874 whole entry Y205A): as the sequence (P30874 whole entry V103N) above, with N103V, Y205A counted along it
# SSTR2 S285^ECL3A (human) = SSTR2 S285^ECL3A (human) (UniProt P30874)
# SSTR2 S285^ECL3A (human), sequence (P30874 whole entry S285A): as the sequence (P30874 whole entry V103N) above, with N103V, S285A counted along it
# SSTR2 F208^5.38A (human) = SSTR2 F208^5.38A (human) (UniProt P30874)
# SSTR2 F208^5.38A (human), sequence (P30874 whole entry F208A): as the sequence (P30874 whole entry V103N) above, with N103V, F208A counted along it
# SSTR2 I284^ECL3A (human) = SSTR2 I284^ECL3A (human) (UniProt P30874)
# SSTR2 I284^ECL3A (human), sequence (P30874 whole entry I284A): as the sequence (P30874 whole entry V103N) above, with N103V, I284A counted along it
# SSTR2 K291^7.32A (human) = SSTR2 K291^7.32A (human) (UniProt P30874)
# SSTR2 K291^7.32A (human), sequence (P30874 whole entry K291A): as the sequence (P30874 whole entry V103N) above, with N103V, K291A counted along it
# SSTR2 S279^6.58A (human) = SSTR2 S279^6.58A (human) (UniProt P30874)
# SSTR2 S279^6.58A (human), sequence (P30874 whole entry S279A): as the sequence (P30874 whole entry V103N) above, with N103V, S279A counted along it
# SSTR2 W188^ECL3A (human) = SSTR2 W188^ECL3A (human) (UniProt P30874)
# SSTR2 W188^ECL3A (human), sequence (P30874 whole entry W188A): as the sequence (P30874 whole entry V103N) above, with N103V, W188A counted along it
# SSTR2 F272^6.51A (human) = SSTR2 F272^6.51A (human) (UniProt P30874)
# SSTR2 F272^6.51A (human), sequence (P30874 whole entry F272A): as the sequence (P30874 whole entry V103N) above, with N103V, F272A counted along it
# SSTR2 Q102^2.63A (human) = SSTR2 Q102^2.63A (human) (UniProt P30874)
# SSTR2 Q102^2.63A (human), sequence (P30874 whole entry Q102A): as the sequence (P30874 whole entry V103N) above, with Q102A, N103V counted along it
# SSTR2 P286^ECL3A (human) = SSTR2 P286^ECL3A (human) (UniProt P30874)
# SSTR2 P286^ECL3A (human), sequence (P30874 whole entry P286A): as the sequence (P30874 whole entry V103N) above, with N103V, P286A counted along it
# SSTR2 F294^7.35A (human) = SSTR2 F294^7.35A (human) (UniProt P30874)
# SSTR2 F294^7.35A (human), sequence (P30874 whole entry F294A): as the sequence (P30874 whole entry V103N) above, with N103V, F294A counted along it
# SSTR2 L99^2.60A (human) = SSTR2 L99^2.60A (human) (UniProt P30874)
# SSTR2 L99^2.60A (human), sequence (P30874 whole entry L99A): as the sequence (P30874 whole entry V103N) above, with L99A, N103V counted along it
# [12] = target: SSTR2 T194^45.51A (human) (UniProt P30874)
# SSTR2 T194^45.51A (human), sequence (P30874 whole entry T194A): as the sequence (P30874 whole entry V103N) above, with N103V, T194A counted along it
# SSTR2 Y302^7.43A (human) = SSTR2 Y302^7.43A (human) (UniProt P30874)
# SSTR2 Y302^7.43A (human), sequence (P30874 whole entry Y302A): as the sequence (P30874 whole entry V103N) above, with N103V, Y302A counted along it
# [13] = target: SSTR2 I195^45.52A (human) (UniProt P30874)
# SSTR2 I195^45.52A (human), sequence (P30874 whole entry I195A): as the sequence (P30874 whole entry V103N) above, with N103V, I195A counted along it
# human full-length SSTR3 wild-type (human), sequence (P32745 whole entry): as the sequence (P32745 whole entry) above
# human full-length SSTR3 H192^45.51T (human), sequence (P32745 whole entry H192T): as the sequence (P32745 whole entry) above, with H192T counted along it
# human full-length SSTR2 T194^45.51H (human), sequence (P30874 whole entry T194H): as the sequence (P30874 whole entry V103N) above, with N103V, T194H counted along it
# human full-length SSTR2 wild-type (human), sequence (P30874 whole entry): as the sequence (P30874 whole entry V103N) above, with N103V counted along it
# human full-length SSTR3 N101^2.64V (human), sequence (P32745 whole entry): as the sequence (P32745 whole entry) above
substance,measurement,setting,value
octreotide (peptide),"octreotide induced cAMP inhibition (GloSensor, HEK293 cells, 1e-13 to 1e-06): EC50 of the fit WT-1",[1],0.208 nM
same,"octreotide induced cAMP inhibition (GloSensor, HEK293 cells, 1e-13 to 1e-06): EC50 of the fit WT-2",[1],0.208 nM
same,"octreotide induced cAMP inhibition (GloSensor, HEK293 cells, 1e-13 to 1e-06): EC50 of the fit H192T-1",[2],82.9 nM
same,"octreotide induced cAMP inhibition (GloSensor, HEK293 cells, 1e-13 to 1e-06): EC50 of the fit H192T-2",[2],21 nM
same,"octreotide induced cAMP inhibition (GloSensor, HEK293 cells, 1e-13 to 1e-06): EC50 of the fit WT-1 (SSTR3)",[3],54.7 nM
same,"octreotide induced cAMP inhibition (GloSensor, HEK293 cells, 1e-13 to 1e-06): EC50 of the fit WT-2 (SSTR3)",[3],30.1 nM
same,"octreotide induced cAMP inhibition (GloSensor, HEK293 cells, 1e-13 to 1e-06): EC50 of the fit N101V-1",[4],2.5 nM
same,"octreotide induced cAMP inhibition (GloSensor, HEK293 cells, 1e-13 to 1e-06): EC50 of the fit N101V-2",[4],1.33 nM
same,"octreotide induced cAMP inhibition (GloSensor, HEK293 cells, 1e-13 to 1e-06): EC50 of the fit T194H-1",[5],28.2 nM
same,"octreotide induced cAMP inhibition (GloSensor, HEK293 cells, 1e-13 to 1e-06): EC50 of the fit T194H-2",[5],28.2 nM
same,"octreotide induced cAMP inhibition (GloSensor, HEK293 cells, 1e-13 to 1e-06): EC50 of the fit V103N-1",[6],0.227 nM
same,"octreotide induced cAMP inhibition (GloSensor, HEK293 cells, 1e-13 to 1e-06): EC50 of the fit V103N-2",[6],0.227 nM
same,"EC50 of octreotide-induced cAMP inhibition (GloSensor, HEK293 cells expressing the receptor; Supplementary Table 5)",[7],0.21 nM
same,"EC50 of octreotide-induced cAMP inhibition (GloSensor, HEK293 cells expressing the receptor; Supplementary Table 5)",SSTR2 V103^2.64N (human),0.23 nM
same,"EC50 of octreotide-induced cAMP inhibition (GloSensor, HEK293 cells expressing the receptor; Supplementary Table 5)",SSTR3 N101^2.64V (human),1.33 nM
same,"EC50 of octreotide-induced cAMP inhibition (GloSensor, HEK293 cells expressing the receptor; Supplementary Table 5)",[8],21 nM
same,"EC50 of octreotide-induced cAMP inhibition (GloSensor, HEK293 cells expressing the receptor; Supplementary Table 5)",[9],18.7 nM
same,"EC50 of octreotide-induced cAMP inhibition (GloSensor, HEK293 cells expressing the receptor; Supplementary Table 5)",[10],30.1 nM
same,"EC50 of octreotide-induced cAMP inhibition (Gi signaling, GloSensor, HEK293 cells expressing the receptor)",[11],0.46 nM
same,"EC50 of octreotide-induced cAMP inhibition (Gi signaling, GloSensor, HEK293 cells expressing the receptor)",SSTR2 T287^ECL3A (human),0.6 nM
same,"EC50 of octreotide-induced cAMP inhibition (Gi signaling, GloSensor, HEK293 cells expressing the receptor)",SSTR2 F127^3.37A (human),1.93 nM
same,"EC50 of octreotide-induced cAMP inhibition (Gi signaling, GloSensor, HEK293 cells expressing the receptor)",SSTR2 N276^6.55A (human),35.1 nM
same,"EC50 of octreotide-induced cAMP inhibition (Gi signaling, GloSensor, HEK293 cells expressing the receptor)",SSTR2 Y205^5.35A (human),0.92 nM
same,"EC50 of octreotide-induced cAMP inhibition (Gi signaling, GloSensor, HEK293 cells expressing the receptor)",SSTR2 S285^ECL3A (human),0.69 nM
same,"EC50 of octreotide-induced cAMP inhibition (Gi signaling, GloSensor, HEK293 cells expressing the receptor)",SSTR2 F208^5.38A (human),6.42 nM
same,"EC50 of octreotide-induced cAMP inhibition (Gi signaling, GloSensor, HEK293 cells expressing the receptor)",SSTR2 I284^ECL3A (human),1.91 nM
same,"EC50 of octreotide-induced cAMP inhibition (Gi signaling, GloSensor, HEK293 cells expressing the receptor)",SSTR2 K291^7.32A (human),5.46 nM
same,"EC50 of octreotide-induced cAMP inhibition (Gi signaling, GloSensor, HEK293 cells expressing the receptor)",SSTR2 S279^6.58A (human),1.17 nM
same,"EC50 of octreotide-induced cAMP inhibition (Gi signaling, GloSensor, HEK293 cells expressing the receptor)",SSTR2 W188^ECL3A (human),0.32 nM
same,"EC50 of octreotide-induced cAMP inhibition (Gi signaling, GloSensor, HEK293 cells expressing the receptor)",SSTR2 F272^6.51A (human),322 nM
same,"EC50 of octreotide-induced cAMP inhibition (Gi signaling, GloSensor, HEK293 cells expressing the receptor)",SSTR2 Q102^2.63A (human),66.8 nM
same,"EC50 of octreotide-induced cAMP inhibition (Gi signaling, GloSensor, HEK293 cells expressing the receptor)",SSTR2 P286^ECL3A (human),0.62 nM
same,"EC50 of octreotide-induced cAMP inhibition (Gi signaling, GloSensor, HEK293 cells expressing the receptor)",SSTR2 F294^7.35A (human),190 nM
same,"EC50 of octreotide-induced cAMP inhibition (Gi signaling, GloSensor, HEK293 cells expressing the receptor)",SSTR2 L99^2.60A (human),1.25 nM
same,"EC50 of octreotide-induced cAMP inhibition (Gi signaling, GloSensor, HEK293 cells expressing the receptor)",[12],48.5 nM
same,"EC50 of octreotide-induced cAMP inhibition (Gi signaling, GloSensor, HEK293 cells expressing the receptor)",SSTR2 Y302^7.43A (human),79 nM
same,"EC50 of octreotide-induced cAMP inhibition (Gi signaling, GloSensor, HEK293 cells expressing the receptor)",[13],6.58 nM
